{"source": "paper PMC6996922", "key": {"[1]": {"target": "Chk1 (UniProt O14757)", "experiment": "biotin-peptide streptavidin pull-down from lysate", "conditions": "reference: NC peptide with pT916 and pS945, untreated; sites T916,S945"}, "[2]": {"target": "Chk1 (UniProt O14757)", "experiment": "biotin-peptide streptavidin pull-down, purified Chk1", "conditions": "reference: NC peptide with pT916 and pS945, untreated; sites T916,S945"}}, "data": [{"substance": "Claspin NC peptide, 901-955 (from UniProt Q9HAW4) NC peptide pretreated with λ-phosphatase", "values": [{"measurement": "binding against the reference", "setting": "[1]", "result": "lost"}, {"measurement": "binding against the reference", "setting": "[2]", "result": "lost"}]}]}
